± gives the uncertainty stated by the source.
Experiment: protein stability index of a GFP-peptide fusion (yeast GPS) (PSI 1-4); higher = more stable; sorted into four equal gates, so the index is relative within each strain
Details: pdr5∆
Summary of the method: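 The protein stability index of a peptide was calculated by multiplying its read frequency in each gate by that gate's number and adding the products. The peptides were tiled 17-residue stretches of yeast proteins, fused downstream of GFP on a Cherry-expressing plasmid and carried in yeast as a pooled library. Mid-log cultures in leucine-free medium were sorted into four equal gates by GFP/Cherry ratio, and each gate's plasmids were PCR-amplified and Illumina-sequenced.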
Work on DQYDAERDFYHSLREYI [RPO31] yielded a protein stability index of 3 ± 0.12.
Work on DRHIGCVYSGLIPDGRH [PRE10] yielded a protein stability index of 3.41 ± 0.088.
In the case of DRPGSKFHKREVVEAVT [RPL3], the protein stability index is reported as 1.96 ± 0.14.

Same assay, conditions: san1∆
CDVFWVQKDTAIIRLHP [POP1] showed a protein stability index of 2.5 ± 0.095.
Sequence CEKWAASSWAKKIAQRE [RPL14A] has a protein stability index of 2.24 ± 0.17.
For CFDSTTGRDAGFGILED [RRP40], the protein stability index was 3.47 ± 0.12.
For CIIAVSCTLLERGHPKD [POP1], the protein stability index was 1.81 ± 0.036.
In the case of CISLGSTKLSRPFDSFG [ITC1], the protein stability index is reported as 3.03 ± 0.048.
With CITLDQLAVRAPKGQNT [RPL18A] the protein stability index was 2.94 ± 0.079.
For CKIDFQKNFMDQFQWIL [RRI2], the protein stability index was 1.55 ± 0.24.
Sequence CKNFEKTQLGSTMTEPV [GAL11] has a protein stability index of 2.58 ± 0.054.
Work on CRVCSSHTGLVRKYDLN [RPS29B] yielded a protein stability index of 2.38 ± 0.079.
In the case of CSDFVKILNLEKPLILA [NUT1], the protein stability index is reported as 1.34 ± 0.17.
For CSHIFTSDQKNKRTQFS [RPB9], the protein stability index was 2.47 ± 0.068.
For CVEWRLPEIAKEIYTTL [YJR042W/NUP85], the protein stability index was 1.52 ± 0.11.
With DALRRGMLAMASLHSKE [MED4] the protein stability index was 2.24 ± 0.17.
DAPFNKVVLKALFLSKI [RPL18A] gave a protein stability index of 1.25 ± 0.13.
DARGVIGVIAGGGRVDK [RPL2A] showed a protein stability index of 3.06 ± 0.11.
DASPAPSNESCSPWSLQ [SRB5] gave a protein stability index of 2.86 ± 0.046.
In the case of DASPDSLEALIDLCHDF [YCS4], the protein stability index is reported as 2.86 ± 0.054.
DAVLKIFSFHQDSIFQR [SRB8] showed a protein stability index of 3.04 ± 0.077.
In the case of DDDDDEDEEEEEEVTDQ [QCR6], the protein stability index is reported as 3.4 ± 0.047.
With DDEPTTPAELVGKFLGY [FAS1] the protein stability index was 3.16 ± 0.08.
For DDFEEDEDEEDDDDYNA [RPC31], the protein stability index was 3.2 ± 0.09.
Sequence DDFTDAIQFVKENELLF [YCS4] has a protein stability index of 2.58 ± 0.16.
Work on DDLQKFNGIENQSAYEW [ISW2] yielded a protein stability index of 3.29 ± 0.1.
In the case of DDNNNNNNNNNNNNSTR [GRR1], the protein stability index is reported as 2.95 ± 0.041.
Work on DDRVDKKFVSQIQKNVD [POP3] yielded a protein stability index of 3.29 ± 0.064.
Work on DDYDYVMYGTAYKFEEV [RPB8] yielded a protein stability index of 2.95 ± 0.055.
Work on DDYSNLKREERQGLIHQ [SMC3] yielded a protein stability index of 1.96 ± 0.21.
With DEDLLDTQTFSVLLQQL [YGL172W/NUP49] the protein stability index was 1.72 ± 0.11.
With DEELVSHFVSAVSTIAS [RPP0] the protein stability index was 2.76 ± 0.18.
For DEFIKTHEDLPKEVDGL [IRR1], the protein stability index was 3.04 ± 0.078.
Sequence DEFKDITKEVTQVNILK [YIL149C/MLP2] has a protein stability index of 2.67 ± 0.14.
For DEGGAKSLLLNTLNIDN [BRN1], the protein stability index was 3.1 ± 0.083.
DEIKAQRKEIKDRISSC [SMC4] gave a protein stability index of 3.13 ± 0.061.
DENGTNSAIANEQEEKS [RPC37] showed a protein stability index of 2.74 ± 0.047.
For DEQDDDNVNSTTGSIFE [BRN1], the protein stability index was 2.7 ± 0.15.
DFDDFLKLGLVEYLDVN [RET1] gave a protein stability index of 3 ± 0.11.
Work on DFHFSTDRITRLFIKPG [BRN1] yielded a protein stability index of 2.16 ± 0.089.
DFITGSYLISHKDSFYD [RPO31] gave a protein stability index of 2.13 ± 0.064.
Work on DFKEVEDFLHFIVAEYI [SRB4] yielded a protein stability index of 3.13 ± 0.056.
For DFKTDVDEPMTSAVELG [YJL039C/NUP192], the protein stability index was 2.54 ± 0.13.
Sequence DFTLPEDFAPLLAEEEE [PRP8] has a protein stability index of 3.23 ± 0.11.
DFTQEDELRKQELISKA [ISW2] gave a protein stability index of 3.03 ± 0.083.
With DFYTRHHFTCEITGTSC [ITC1] the protein stability index was 1.51 ± 0.094.
In the case of DGDASKPAFSFGAKPDE [YJL041W/NSP1], the protein stability index is reported as 3.15 ± 0.036.
Work on DGHYIEENSQGNILDFN [REC8] yielded a protein stability index of 2.89 ± 0.065.
Sequence DHNALPQRCTFAFEAID [POP1] has a protein stability index of 2.79 ± 0.089.
For DIAGQRDDALVVETITS [RRP42], the protein stability index was 2.27 ± 0.27.
For DIDLETYSFIDNDRFNV [YML103C/NUP188], the protein stability index was 2.46 ± 0.081.
DIEAGDDDDNNESSSNT [DIS3] gave a protein stability index of 3.05 ± 0.11.
For DIFVYLTYDKDLTNNPQ [MTR3], the protein stability index was 2.35 ± 0.1.
With DIGSDPTLPRSDRECPK [RPB9] the protein stability index was 2.85 ± 0.076.
Work on DILLCYQKLFSQFINDH [SRB8] yielded a protein stability index of 2.64 ± 0.042.
In the case of DILLNERVWNICLYSSF [AAR2], the protein stability index is reported as 1.55 ± 0.14.
Work on DINVESLTQSVCDLALR [PUP2] yielded a protein stability index of 1.67 ± 0.18.
Sequence DIPLAKALDNACGAFIN [CDC53] has a protein stability index of 2.8 ± 0.078.
In the case of DITGDIRNEGSDAEEEE [ISW2], the protein stability index is reported as 3.05 ± 0.089.
DITVHGEQIIVHPVNER [RRP45] gave a protein stability index of 1.82 ± 0.14.
Work on DKDNPVDSRNETDHKTN [SRB4] yielded a protein stability index of 2.88 ± 0.086.
DKFPYKKLELPKYIDEL [SWP82] showed a protein stability index of 2.56 ± 0.064.
DKFRKACSSSGRETILS [SIR3] showed a protein stability index of 1.83 ± 0.073.
In the case of DKHLYHVLYKESKGNAF [RPL19A], the protein stability index is reported as 2.96 ± 0.11.
In the case of DKIHARARGPMQVLTRQ [RPB2], the protein stability index is reported as 2.97 ± 0.09.
In the case of DKKHFNNKNKRVTGAGG [RPC53], the protein stability index is reported as 3.16 ± 0.27.
In the case of DKKKGQNVTSETHSKKR [ITC1], the protein stability index is reported as 3.16 ± 0.061.
Work on DKKVTLITSEMFDAFVS [SIN4] yielded a protein stability index of 1.36 ± 0.098.
DKLSGCYAPRPSAGPHK [RPS4A] gave a protein stability index of 1.76 ± 0.099.
In the case of DKLTSIQDTLRTGSQSP [MED7], the protein stability index is reported as 2.69 ± 0.032.
In the case of DKPYLLRIVTHLAICLD [YDL116W/NUP84], the protein stability index is reported as 1.32 ± 0.13.
Work on DKQYRTAVATLLKELSK [SMC3] yielded a protein stability index of 3.06 ± 0.061.
Work on DKRFSGSLKLPNCPRPN [RPL1A] yielded a protein stability index of 2.94 ± 0.051.
Sequence DLIADTITNSSSSSDII [YML103C/NUP188] has a protein stability index of 2.63 ± 0.04.
For DLIETSFTCFAQFVSNK [NUT1], the protein stability index was 1.92 ± 0.11.
For DLKDILEKVVPLINVVV [BRR2], the protein stability index was 2.37 ± 0.15.
In the case of DLLPNSFAKLVPCEGKD [SMC2], the protein stability index is reported as 2.46 ± 0.053.
Sequence DLNHVTEELQTQYATSQ [SMC2] has a protein stability index of 3.16 ± 0.1.
With DLNPLKTLNLFKQIKSA [RPO31] the protein stability index was 2.62 ± 0.11.
DLPETGFFENIETEFLL [IRR1] showed a protein stability index of 3.22 ± 0.047.
In the case of DLQRTQTLSEKEYQCSA [YIL149C/MLP2], the protein stability index is reported as 3.11 ± 0.069.
For DLSWSKQTDTGITHFRA [PRP8], the protein stability index was 3 ± 0.055.
Work on DLVLGKPLADLRPLFTR [YLR335W/NUP2] yielded a protein stability index of 2.84 ± 0.16.
Sequence DMENMADEQKRSTDVWY [ARP7] has a protein stability index of 2.62 ± 0.053.
Work on DMLKYKEDEPVVARRSN [ITC1] yielded a protein stability index of 1.84 ± 0.084.
DNFDYFNQRDGEHEKSN [MED1] gave a protein stability index of 3.19 ± 0.15.
For DNIDEKVVKAIRIYFTE [NUT1], the protein stability index was 3.04 ± 0.048.
With DNISSFHSAVENLVQGN [YCG1] the protein stability index was 3.17 ± 0.067.
With DNMSEEQWLRQFEVSDD [SNF2] the protein stability index was 3.16 ± 0.12.
Sequence DNSESHPFIPLLKEKPN [RRP6] has a protein stability index of 1.99 ± 0.071.
With DPELLRSYIFGGHVSQY [RPL5] the protein stability index was 3.33 ± 0.056.
In the case of DPESRTQSYNNQNTLKE [POP1], the protein stability index is reported as 2.88 ± 0.079.
With DPRNLVNQTGSTKKDTV [YCG1] the protein stability index was 2.53 ± 0.075.
Sequence DPSQNRLTGSLLAHKVA [RPC37] has a protein stability index of 1.69 ± 0.095.
Sequence DQFRDVEITFGKEFGDV [RRP45] has a protein stability index of 3.54 ± 0.086.
With DQLIISSSANKLLQLFL [YML103C/NUP188] the protein stability index was 1.89 ± 0.086.
In the case of DQSNVQYYLSVLNQQLP [BRR2], the protein stability index is reported as 3.02 ± 0.06.
In the case of DQTFPINCNKETIENVK [ECM29], the protein stability index is reported as 3.08 ± 0.07.
For DQVVVRGIDTLQKKVAS [RPB3], the protein stability index was 2.68 ± 0.28.
In the case of DQYDAERDFYHSLREYI [RPO31], the protein stability index is reported as 3.07 ± 0.074.
With DRHIGCVYSGLIPDGRH [PRE10] the protein stability index was 3.1 ± 0.062.
With DRPGSKFHKREVVEAVT [RPL3] the protein stability index was 2.02 ± 0.19.

Source: the supplement of paper PMC9732359
